We go through 25 molecules from patent publication US20240182556A1 (OPSIDIO, published 2024).

Numbering of substitutions follows the chain as printed. Numbers in names are those of the source.

Sequences and labels used below:
T1: PE9413, C-terminal biotinylated peptide mapping on Exon6 of the SCF molecule (SCF248) (C-terminal biotin)
T1 construct: also called C-terminal biotinylated PE9413; C-ter PE9413
T1 peptide: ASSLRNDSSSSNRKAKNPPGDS

T2: exon 6 peptide (ASSLRNDSSSSNRKAKNPPGDS), coated on ELISA plate (not fully specified)
T2 construct: No biotin is mentioned for the ELISA coat; also called a peptide of SCF248
T2 peptide: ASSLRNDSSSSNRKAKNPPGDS

T3: N-terminal biotinylated PE9413 (not fully specified; N-terminal biotin)
T3 construct: also called PE9411; N-ter PE9413
T3 peptide: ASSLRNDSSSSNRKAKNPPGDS

B1: A84P scFv displayed on yeast (scFv, V domains shown)
VH: QVQLVQSGAELKKPGSSVKISCKSSGYAFSSQWMNWVKQRPGQGLEWIGQIYPEDGDTHMNGKFKGKATLTADKSTSTAYMELSSLTSEDSAVYFCSSSNWVGSYWGQGTLVTVSS
VL: DVVMTQSPLSLPVTLGQPASISCKSSQSLLEEDGNTYLNWLQQRPGQSPRRLIYLVDRLDIGVPDRFSGSGSGTDFTLKISRVEAEDVGVYYCWQGTDLPQTFGGGTKVEIK
notes: Aga2-anchored, VH-VL orientation; not shown: linker; SV5 tag
B2: H74P scFv displayed on yeast (scFv, V domains shown)
VH: B1 VH with M60Y
VL: B1 VL with I61L, T97S, D98H
notes: as for B1
B3: A104P scFv displayed on yeast (scFv, V domains shown)
VH: B1 VH with M60Y
VL: B1 VL with I61S
notes: as for B1
B4: A64P scFv displayed on yeast (scFv, V domains shown)
VH: B1 VH with Q32N, M60Y
VL: B1 VL with D57N, I61D
notes: as for B1
B5: D14P scFv displayed on yeast (scFv, V domains shown)
VH: B1 VH with E54G, G56D, M60Y, G62D
VL: B1 VL with E32S, I61L
notes: as for B1
B6: B104P scFv displayed on yeast (scFv, V domains shown)
VH: B1 VH with E54D, M60Y, G62D
VL: B1 VL with E32A, I61S
notes: as for B1
B7: B114P scFv displayed on yeast (scFv, V domains shown)
VH: B1 VH with V102D
VL: B1 VL with I61S
notes: as for B1
B8: B124P scFv displayed on yeast (scFv, V domains shown)
VH: B1 VH with Q32N, M60Y, G62D
VL: B1 VL with E32Q, I61S
notes: as for B1
B9: D44P scFv displayed on yeast (scFv, V domains shown)
VH: B1 VH with T58I, M60Y
VL: B1 VL with I61S, T97S, D98H
notes: as for B1
B10: F54P scFv displayed on yeast (scFv, V domains shown)
VH: B1 VH with G66T
VL: B1 VL with I61S
notes: as for B1
B11: E94P scFv displayed on yeast (scFv, V domains shown)
VH: B1 VH with E54G
VL: B1 VL with I61S
notes: as for B1
B12: G104P scFv displayed on yeast (scFv, V domains shown)
VH: B1 VH with E54G
VL: B1 VL with I61D
notes: as for B1
B13: G14P scFv displayed on yeast (scFv, V domains shown)
VH: B1 VH with E54G, M60Y, G62D
VL: B1 VL with I61D
notes: as for B1
B14: B34P scFv displayed on yeast (scFv, V domains shown)
VH: B1 VH with Q32N, M60Y, G62D
VL: B1 VL with E32S, D57S, L59R, I61S
notes: as for B1
B15: F64P scFv displayed on yeast (scFv, V domains shown)
VH: B1 VH with Q32Y, W33Y, E54G
VL: B1 VL with E32S, I61S
notes: as for B1
B16: D24P scFv displayed on yeast (scFv, V domains shown)
VH: B1 VH with M60Y
VL: B1 VL with E32S, D57S
notes: as for B1
B17: D74P scFv displayed on yeast (scFv, V domains shown)
VH: B1 VH with E54G, G56N, M60Y, G62D
VL: B1 VL with E32A, I61S
notes: as for B1
B18: D113P scFv displayed on yeast (scFv, V domains shown)
VH: B1 VH with E54G
VL: B1 VL with E32G
notes: as for B1
B19: G24P scFv displayed on yeast (scFv, V domains shown)
VH: B1 VH with Q32N, M60Y, G62D
VL: B1 VL with E32S, I61S
notes: as for B1
B20: D124P scFv displayed on yeast (scFv, V domains shown)
VH: B1 VH with M60Y
VL: B1 VL with E32S, I61S
notes: as for B1
B21: B23P scFv displayed on yeast (scFv, V domains shown)
VH: B1 VH with Q32Y, W33Y, E54G
VL: B1 VL with E32S, D57S, L59R, I61S
notes: as for B1
B22: A44P scFv displayed on yeast (scFv, V domains shown)
VH: B1 VH with M60Y, G62D
VL: B1 VL with E32S, D57N, I61S
notes: as for B1
B23: B53P scFv displayed on yeast (scFv, V domains shown)
VH: B1 VH with T58I, M60Y
VL: B1 VL with E32S, I61S
notes: as for B1
B24: H74P mutant expressed as full length IgG4 antibody (antibody, V domains shown)
VH: B1 VH with M60Y
VL: B1 VL with I61L, T97S, D98H
notes: Full length IgG4
B25: H83P mutant expressed as full length IgG4 antibody (antibody, V domains shown)
VH: B1 VH with E54G, T58I, M60Y, G62D
VL: B1 VL with E32S, I61S
notes: Full length IgG4

The target of one assay is T1, PE9413, C-terminal biotinylated peptide …. Description: yeast-displayed scFv, flow cytometry titration of biotinylated peptide. As to the method:
The binding of the selected 48 clones described above to 170 nM of C-terminal biotinylated PE9413 was evaluated. The 24 clones with the highest binding signal were further evaluated for binding affinity. Each clone was incubated with increasing amounts of biotinylated PE9413, and stained with a fluorescently labeled anti-streptavidin antibody. Binding of the clone to PE9413 was analyzed by flow cytometry. A plot of concentration of PE9413 versus the median fluorescent signal of the yeast cell population that bound to PE9413 was used to estimate the binding affinity (KD) of each clone to C-terminal biotinylated PE9413. […]
One may read the Kd as the free concentration of one partner at which half of the binding sites on the other are occupied at equilibrium, for simple one-to-one binding. The molecule B1 returned a Kd of 2.52 nM.
B2 had a Kd of 3.84 nM.
On to B3, for which the Kd was 3.64 nM.
For B4, the Kd was found to be 3.29 nM.
Regarding B5, binding was put at a Kd of 4.39 nM.
The same measure, in the same setting: the same measure for B6: 4.52 nM.
For B7, the Kd came out at 3.63 nM.
The same measure, in the same setting: the value for B8 was 3.82 nM; that for B9 was 4.18 nM.
B10 came in with a Kd of 4.09 nM.

The target is the same in the next assay. Described as above. The source holds these as a separate data set. How it is done:
The binding of the selected 48 clones described above to 170 nM of C-terminal biotinylated PE9413 was evaluated. The 24 clones with the highest binding signal were further evaluated for binding affinity. Each clone was incubated with increasing amounts of biotinylated PE9413, and stained with a fluorescently labeled anti-streptavidin antibody. Binding of the clone to PE9413 was analyzed by flow cytometry. A plot of concentration of PE9413 versus the median fluorescent signal of the yeast cell population that bound to PE9413 was used to estimate the binding affinity (KD) of each clone to C-terminal biotinylated PE9413.
B1 returned an equilibrium dissociation constant (Kd) of 2.52 nM.
On to B11, for which the Kd stood at 6.33 nM.
On the same count and under the same terms, the value for B12 was 7.09 nM.
Same read-out and setting: the value for B2 was 3.84 nM; that for B3 was 3.64 nM.
Molecule B4 came in with a Kd of 3.29 nM.
The same measure, in the same setting: the value for B13 was 5.93 nM; that for B5 was 4.39 nM.
Same read-out and setting: the value for B14 was 5.06 nM; that for B6 was 4.52 nM.
Turning to B15, the Kd is 6.69 nM.
The same measure, in the same setting: the value for B16 was 14.4 nM; that for B17 was 6.38 nM; that for B18 was 8.07 nM.
On to B7, for which the Kd was 3.63 nM.
Still for that read-out and setting: the same measure for B19: 5.79 nM.
In the case of B20, the Kd was 6.97 nM.
For B21, the Kd turned out to be 5.3 nM.
Still for that read-out and setting: the same measure for B22: 5.32 nM; for B8: 3.82 nM; for B9: 4.18 nM.
Same read-out and setting: the same measure for B10: 4.09 nM; for B23: 4.97 nM.

Another assay concerns the target T2, exon 6 peptide …. As to the kind of experiment: direct ELISA on coated peptide, IgG4, read at 450 nm. How it is done: A direct enzyme-linked immunosorbent assay (ELISA) was performed to evaluate binding of the clones of Example 2 (referred to in all additional examples as “mutants”) to the Exon 6 peptide. The mutants were expressed as full length IgG4 antibodies.
The plate was incubated at 4° C. overnight. […] Both plates were washed with wash buffer twice. Then, the plates were blocked with blocking buffer for 1 hour at 37° C. The plates were then washed with wash buffer twice. […] The plate was covered and incubated for 1 hour at 37° C. The plates were then washed with wash buffer three times. The secondary antibody was added to the plates. The plates were covered and incubated for 1 hour at 37° C. The plates were then washed with wash buffer three times. 100 μL of detection substrate was added to each well of the plates. The plates were covered and incubated for 10-20 minutes at room temperature. Subsequently, 100 μL of stop solution was added to the plates. Each plate was read at an absorbance of 450 nm.
Reagents: Coating buffer contained 1.5M NaCl, 0.5M […], and 1.0N NaOH. Wash buffer contained 0.05% Tween-20 in PBS. Blocking buffer contained 2.0% normal goat serum in wash buffer. The dilution buffer was wash buffer and 2% FCS. The secondary antibody was a goat anti-human IgG HRP conjugate, purchased from Millipore (Catalogue Number: AP309P). The secondary antibody was diluted 1:1000. The detection substrate was prepared by dissolving 4 O-phenylenediamine dihydrochloride (OPD) tablets dissolved in 12 mL sterile distilled water. 5 μL of hydrogen peroxide (30% v/v) was added to the detection substrate immediately before adding substrate to the wells. The stop solution contained 0.5 M H₂SO₄.
B24: the “absorbance at 0.1 ng/mL antibody” value stood at 0.105 absorbance, the “absorbance at 0.5 ng/mL antibody” value turned out to be 0.249 absorbance, the “absorbance at 1 ng/mL antibody” value turned out to be 0.58 absorbance and the “absorbance at 5 ng/mL antibody” value was determined as 1.3 absorbance. Further, the “absorbance at 100 ng/mL antibody” value came to 2.56 absorbance and the “absorbance at 1000 ng/mL antibody” value was determined as 3 absorbance.
Turning to B25, the “absorbance at 0.1 ng/mL antibody” value worked out at 0.204 absorbance, the “absorbance at 0.5 ng/mL antibody” value was 0.537 absorbance, the “absorbance at 1 ng/mL antibody” value came out at 0.597 absorbance and the “absorbance at 5 ng/mL antibody” value was 1.42 absorbance. Moreover, the “absorbance at 100 ng/mL antibody” value is 1.81 absorbance and the “absorbance at 1000 ng/mL antibody” value came to 2.32 absorbance.

Another assay concerns the target T3, N-terminal biotinylated PE9413. Description: yeast-displayed scFv, flow cytometry titration of N-terminal biotinylated peptide. How it is done: The affinity of the 12 best clones for the N-terminal biotinylated target peptide […] was also evaluated. Each clone was incubated with increasing amounts of N-terminal biotinylated PE9413, and stained with a fluorescently labeled anti-streptavidin antibody. Binding of the clone to N-terminal biotinylated PE9413 was analyzed by flow cytometry. A plot of concentration of PE9413 versus the median fluorescent signal of the yeast cell population that bound to PE9413 was used to estimate the binding affinity (KD) of each clone to N-terminal biotinylated PE9413. The tested clones were confirmed to have improved affinities over the parental antibody 5H10 against the target sequence PE9413, regardless of the biotinylation modification, as reported in Table A3 and FIG. 12.
On the technique in general: In flow cytometry, cells or beads pass a laser one at a time.
In the case of B1, the dissociation constant Kd is 3.93 nM.
Same read-out and setting: the same measure for B2: 4.9 nM; for B3: 5.85 nM.
In turn, B4 displayed a Kd of 5.23 nM.
With B5, binding was put at a Kd of 5.38 nM.
Same read-out and setting: the value for B6 was 6.38 nM; that for B7 was 7.14 nM; that for B8 was 5 nM.
Molecule B9 came in with a Kd of 4.61 nM.
B10 returned a Kd of 5.66 nM.

For the next assay, the target named is human SCF248 (stem cell factor 248 isoform) expressed on mouse SI/SI4 cells (human), P21583. As to the kind of experiment: cell-based or functional assay.
Chain of human SCF248 (stem cell factor 248 isoform) expressed on mouse SI/SI4 cells (human), P21583 (P21583 26-273): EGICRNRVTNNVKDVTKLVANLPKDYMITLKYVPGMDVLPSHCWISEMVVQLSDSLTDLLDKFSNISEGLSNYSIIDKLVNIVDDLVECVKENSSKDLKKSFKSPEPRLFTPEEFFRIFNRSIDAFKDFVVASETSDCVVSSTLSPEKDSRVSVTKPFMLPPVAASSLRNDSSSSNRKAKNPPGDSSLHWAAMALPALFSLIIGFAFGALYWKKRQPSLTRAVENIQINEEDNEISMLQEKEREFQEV
B24 registered a CCL2 Expression as Percentage of Positive Control of 40.6% and a TGFβ Expression as Percentage of Positive Control of 58.4%.
B25 came in with a CCL2 Expression as Percentage of Positive Control of 56.2% and a TGFβ Expression as Percentage of Positive Control of 77.1%.
